Measured values taken from patent US20260258115A1 (MAPP BIOPHARMACEUTICAL, published 2026).

Assays:
[1] = target: T1, RSV postfusion F (postF), subtype A (respiratory syncytial virus subtype A, UniProt P03420 26-513); experiment: BLI
T1 construct: also called Postfusion subtype A; F deltaFP

[2] = target: T2, RSV prefusion F (preF), subtype B (respiratory syncytial virus subtype B); experiment: BLI, IgG
T2 construct: also called Prefusion subtype B

[3] = target: RSV F on RSV subtype A virus (mKate-RSV A2) (respiratory syncytial virus A2, UniProt P03420 26-574); experiment: cell-based or functional assay
[4] = target: RSV F on RSV subtype B virus (mKate-RSV B 18537) (respiratory syncytial virus B 18537, UniProt P13843 26-574); experiment: cell-based or functional assay

B1: ADI-24827 (antibody, V domains shown)
VH: EVQLVESGGGLVQPGGSLRLSCAASGFTVSSNYMSWVRQAPGKGLEWVSVIYSDGSTYYADSVKGRFTISRHNSKNTLYLQMNSLRAEDTAVYYCARCSTYGDYIDWYFDLWGRGTLVTVSS
VL: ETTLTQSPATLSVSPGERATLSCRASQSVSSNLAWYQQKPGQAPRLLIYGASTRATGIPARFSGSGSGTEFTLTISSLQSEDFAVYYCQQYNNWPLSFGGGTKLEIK
notes: full-length IgG
[1]
  binding result: no binding
[2]
  Kd: 6.62 nM
[3]
  Neut IC50 subtype A: 0.02 µg/mL

B2: ADI-25479 (antibody, V domains shown)
VH: EVQLVESGGGLVKPGGSLRLSCAASGFTFSSYSMNWVRQAPGKGLEWVSSISSSSSYIYYADSVKGRFTISRDNAKNSLYLQMNSLRAEDTAVYYCARGGYSYGAYYYYYMDVWGKGTTVTVSS
VL: QSVLTQPPSVSGAPGQRVTISCTGSSSNIGAGYDVHWYQQLPGTAPKLLIYGNSNRPSGVPDRFSGSKSGTSASLAITGLQAEDEADYYCQSYDSSLSGYWVFGGGTKLTVL
notes: full-length IgG
[1]
  binding result: no binding
[2]
  Kd: 4.29 nM
[3]
  Neut IC50 subtype A: 0.24 µg/mL
[4]
  Neut IC50 subtype B: 0.29 µg/mL

B3: ADI-25480 (antibody, V domains shown)
VH: EVQLVESGGGLVKPGGSLRLSCAASGFTFSSYSMNWVRQAPGKGLEWVSSISSSSSYIYYADSVKGRFTISRDNAKNSLYLQMNSLRAEDTAVYYCARGGYSYGAYYYYYMDVWGKGTTVTVSS
VL: QSVLTQPPSVSGAPGQRVTISCTGSSSNIGAGYDVHWYQQLPGTAPKLLIYGNSNRPSGVPDRFSGSKSGTSASLAITGLQAEDEADYYCQSYDSSLSGYWVFGGGTKVTVL
notes: full-length IgG; also called Ab 430
[1]
  binding result: no binding
[2]
  Kd: 4.27 nM
[3]
  Neut IC50 subtype A: 0.17 µg/mL
[4]
  Neut IC50 subtype B: 0.17 µg/mL

B4: ADI-19510 (antibody, V domains shown)
VH: EVQLVESGGGLVKPGGSLRLSCAASGFSLSSYYMNWVRQAPGKGLEWVSSISSSSTYINYADSVKGRFTISRDNAKNSLYLQMNSLRAEDTAVYYCARGGSITIFGVVFDSWGQGTLVTVSS
VL: SYELTQPPSVSGAPGQRVTISCTGTSSNIGAGYDVHWYQQLPGTAPKLLIYVNSNRPSGVPDRFSGSKSGTSASLAITGLQAEDEADYYCQSYDSSLSGGVFGTGTKVTVL
notes: full-length IgG; also called Ab 210
[1]
  binding result: no binding
[2]
  Kd: 0.239 nM
[3]
  Neut IC50 subtype A: 0.16 µg/mL
[4]
  Neut IC50 subtype B: 0.83 µg/mL

B5: ADI-19459 (antibody, V domains shown)
VH: QVQLVESGGGLVQPGGSLRLSCAASGFTVSSNYMSWVRQAPGKGLEWVSVIYSGGSTYYADSVKGRFTISRDNSKNTLYLQMNSLRAEDTAVYYCAREALGMDHWYFDLWGRGTLVTVSS
VL: SYELMQPPSVSVAPGKTARITCGGNNIGSKSVHWYQQKPGQAPVLVVYDDSDRPSGIPERFSGSNSGNTATLTISRVEAGDEADYYCQVWDSSSDHPVFGGGTKVTVL
notes: full-length IgG
[2]
  Kd: 1.45 nM
[3]
  Neut IC50 subtype A: 0.05 µg/mL
[4]
  Neut IC50 subtype B: 0.1 µg/mL

B6: ADI-25484 (antibody, V domains shown)
VH: EVQLVESGGGLVKPGGSLRLSCAASGFTFSSYSMNWVRQAPGKGLEWVSSISSSSSYIYYADSVKGRFTISRDNAKNSLYLQMNSLRAEDTAVYYCARSIAVAGTGYGMDVWGQGTTVTVSS
VL: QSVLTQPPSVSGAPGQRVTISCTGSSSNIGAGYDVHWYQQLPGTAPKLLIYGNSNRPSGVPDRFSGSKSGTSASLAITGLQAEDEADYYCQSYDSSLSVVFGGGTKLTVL
notes: full-length IgG
[1]
  binding result: no binding
[2]
  Kd: 18.4 nM
[3]
  Neut IC50 subtype A: 15.3 µg/mL
[4]
  Neut IC50 subtype B: 8.58 µg/mL

B7: ADI-14336 (antibody, V domains shown)
VH: EVQLLESGGEVKKPGASVKVSCKASGYTFTNYGISWVRQAPGQGLEWMGWISAYNGNTNYAQKLQGRVTMTTDTSTSTAYMEVRRLRSDDTAVYYCAREPPVIAAGDFQHWGQGTLVTVSS
VL: DIVMTQTPLSLPVTLGQPASISCRSSQSLVHSDTNIYLSWFQQRPGQSPRRLIYKVSNRDSGVPDRFSGSGSGTDFTLRISRVEAEDVGVYYCMQGTHWPPDFGQGTRLEIK
notes: full-length IgG; also called Ab 4
[2]
  Kd: 2.65 nM
[3]
  Neut IC50 subtype A: 0.07 µg/mL
[4]
  Neut IC50 subtype B: 0.09 µg/mL

B8: ADI-14334 (antibody, V domains shown)
VH: EVQLVESGGGLVKPGGSLRLSCAASGVTVSSYYMTWVRQAPGKGLEFISDISSSSTYTNYADSVKGRFTISRDNAKSSLYLQMNNLRAEDTAVYYCARLGITVTGVGYFDLWGRGTLVTVSS
VL: QPGLTQPPSVSGAPGQRVTISCTGSSSNIGAGYDVHWYQQLPGTAPKLLIHDNNNRPSGVPDRFSGSKSGTSASLAITGLQVEDEADYYCQSYDSSLSNYVFGTGTKLTVL
notes: full-length IgG; also called Ab 2
[2]
  Kd: 0.622 nM
[3]
  Neut IC50 subtype A: 0.05 µg/mL
[4]
  Neut IC50 subtype B: 0.11 µg/mL

B9: ADI-19458 (antibody, V domains shown)
VH: EVQLVESGGGRVKPGGSLRLSCAASGFTFRSYSMNWVRQAPGKGLEWVSSISSSSSYINYADSVKGRFTISRDNAKNSLYLQMNSLRAEDTAVYYCARDGSGMTIFGVVIDYWGQGTLVTVSS
VL: QSVLTQPPSVSGAPGQRVTISCTGSSSNIGAGYDVHWYQQLPGTAPKLLIYGNSNRPSGVPDRFSGSKSGTSASLAITGLQAEDEADYYCQSYDRSLTVVFGGGTKLTVL
notes: full-length IgG
[1]
  binding result: no binding
[2]
  Kd: 0.243 nM
[3]
  Neut IC50 subtype A: 0.04 µg/mL
[4]
  Neut IC50 subtype B: 0.07 µg/mL

B10: ADI-19427 (antibody, V domains shown)
VH: EVQLVESGGGLVKPGGSLRLSCAASGFTFSSYSMNWVRQAPGKGLEWVSSISSSSSFISYADSVKGRFTISRDSAKNSLYLQMNSLRAEDTAVYYCARDHPNWNGLAYFDYWGQGTLVTVSS
VL: QSVLTQPPSISGAPGQRVTISCTGSSSNIGAGYDVQWHQQLPGTAPKLLIYGNSNRPSGVPDRFSGSKSGTSASLAITGLQAEDEADYYCQSYDSSLSGWVFGGGTKLTVL
notes: full-length IgG
[1]
  binding result: no binding
[2]
  Kd: 0.5 nM
[3]
  Neut IC50 subtype A: 0.01 µg/mL
[4]
  Neut IC50 subtype B: 0.03 µg/mL

B11: ADI-24859 (antibody, V domains shown)
VH: EVQLLESGGGLVKPGGSLRLSCAASGFTFSSYSMNWVRQAPGKGLEWVSSISSSSSYIYYADSVKGRFTISRDNAKNSLYLQMNSLRAEDTAVYYCARDGSPINWVSPFPFDYWGQGTLVTVSS
VL: QPVLTQPPSVSGAPGQRVTISCTGSSSNIGAGYDVHWYQQLPGTAPKLLIYGNSNRPSGVPDRFSGSKSGTSASLAITGLQAEDEADYYCQSYDSSLSGSVFGGGTQLTVL
notes: full-length IgG; also called Ab 419
[1]
  binding result: no binding
[2]
  Kd: 4.95 nM
[3]
  Neut IC50 subtype A: 0.58 µg/mL

B12: ADI-24792 (antibody, V domains shown)
VH: EVQLVESGGGLVKPGGSLRLSCAASGFIFSDYYMSWIRQAPGKGLEWVSNISGGSSFTNYADSVKGRFTISRDNAKNSLYLQMNSLRAEDTAVYYCARDLGYCSSNSCLDAFDIWGQGTTVTVSS
VL: QSVLTQPPSVSGAPGQRVTISCTGSSSNIGAGYDVHWYQQLPGTAPKLLIYGNTNRPSGVPDRFSGSRSGTSASLAITGLQAEDEADYYCQSYDSSLSGSLFGGGTKVTVL
notes: full-length IgG
[1]
  binding result: no binding
[2]
  Kd: 1.83 nM
[3]
  Neut IC50 subtype A: 0.27 µg/mL
[4]
  Neut IC50 subtype B: 0.19 µg/mL

B13: ADI-19431 (antibody, V domains shown)
VH: EVQLVESGGGLVKPGGSLRLSCAASGFTFSSYSMNWVRQAPGKGLEWVSSISSSSSYIYYADSVKGRFTISRDNAKNSLYLQMNSLRAEDTAVYYCARELYDYVWGSYRDYWGQGTLVTVSS
VL: QPGLTQPPSVSGAPGQRVTISCTGSSSNIGAGYDVHWYQQLPGTAPKLLIYGNSNRPSGVPDRFSGSKSGTSASLAITGLQAEDEADYYCQSYDSSLSGSVFGGGTKVTVL
notes: full-length IgG
[1]
  binding result: no binding
[2]
  Kd: 3.16 nM
[3]
  Neut IC50 subtype A: 4.35 µg/mL
[4]
  Neut IC50 subtype B: 0.17 µg/mL

B14: ADI-19509 (antibody, V domains shown)
VH: EVQLVESGGGLVKPGGSLRLSCAASGFTFSSYSMNWVRQAPGKGLEWVSSISSSSSYIYYADSVKGRFTISRDNAKNSLYLQMNSLRAEDTAVYYCASSRRSLTGDRGGWFDPWGQGTLVTVSS
VL: QSVLTQPPSVSGAPGQRVTISCTGSSSNIGAGYDVHWYQQLPGTAPKLLIYGNSNRPSGVPDRFSGSKSGTSASLAITGLQAEDEADYYCQSYDSSLSGWVFGGGTKLTVL
notes: full-length IgG
[1]
  binding result: no binding
[2]
  Kd: 1.58 nM
[3]
  Neut IC50 subtype A: 3.42 µg/mL
[4]
  Neut IC50 subtype B: 1.56 µg/mL

B15: ADI-25478 (antibody, V domains shown)
VH: EVQLLESGGGLVKPGGSLRLSCAASGFTFSSYSMNWVRQAPGKGLEWVSSISSSSSYIYYADSVKGRFTISRDNAKNSLYLQMNSLRAEDTAVYYCARLDYSNYYYYMDVWGKGTTVTVSS
VL: QPVLTQPPSVSGAPGQRVTISCTGSSSNIGAGYDVHWYQQLPGTAPKLLIYGNSNRPSGVPDRFSGSKSGTSASLAITGLQAEDEADYYCQSYDSSLSGYVFGTGTKLTVL
notes: full-length IgG
[1]
  binding result: no binding
[2]
  Kd: 6.43 nM
[3]
  Neut IC50 subtype A: 2.18 µg/mL
[4]
  Neut IC50 subtype B: 3.52 µg/mL

B16: ADI-24799 (antibody, V domains shown)
VH: EVQLVESGGGLVKPGGSLRLSCAASGFTFSSYSMNWVRQAPGKGLEWVSSISSSSSYIYYADSVKGRFTISRDNAKNSLYLQMNSLRAEDTAVYYCAREGRDGYNYYFDYWGQGTLVTVSS
VL: QSVLTQPPSVSGAPGQRVTISCTGSSSNIGAGYDVHWYQQLPGTAPKLLIYGNSNRPSGVPDRFSGSKSGTSASLAITGLQAEDEADYYCQSYDSSLSGSVFGGGTKLTVL
notes: full-length IgG
[1]
  binding result: no binding
[2]
  Kd: 19 nM
[3]
  Neut IC50 subtype A: 11.5 µg/mL

B17: ADI-24805 (antibody, V domains shown)
VH: QVQLVQSGGGLVKPGGSLRLSCAASGFTFSSYSMNWVRQAPGKGLEWVSSISSSSSYIYYADSVKGRFTISRDNAKNSLYLQMNSLRAEDTAVYYCAREGYSSSSGYYYYMDVWGKGTTVTVSS
VL: QSVLTQPPSVSGAPGQRVTISCTGSSSNIGAGYDVHWYQQLPGTAPKLLIYGNSNRPSGVPDRFSGSKSGTSASLAITGLQAEDEADYYCQSYDSSLSGSVFGTGTKVTVL
notes: full-length IgG; also called Ab 370
[1]
  binding result: no binding
[2]
  Kd: 4.88 nM
[3]
  Neut IC50 subtype A: 0.21 µg/mL
[4]
  Neut IC50 subtype B: 0.71 µg/mL

B18: ADI-24812 (antibody, V domains shown)
VH: EVQLVESGGGLVQPGGSLRLSCAASGFSFSTYAMSWVRQAPGKGLEWVSAISGGGGSTYYADSVKGRFTISRDNSKNTLYLQVNSLRAEDTAVYYCARGGYCSSDSCYPFDFWGQGTLVTVSS
VL: QPVLTQPPSVSVSPGQTAMITCSGDALPKQYAYWYQQKPGQAPVLVIYKDSERPSGIPERFSGSSSGTTVTLTISGVQAEDEADYYCQSADNSGSYAVFGGGTQLTVL
notes: full-length IgG
[1]
  binding result: no binding
[2]
  Kd: 7.58 nM
[3]
  Neut IC50 subtype A: 0.18 µg/mL
